The target in one assay is CHO-huTIM3 (UniProt Q8TDQ0). Kind of assay: FACS binding, CHO-huTIM3 transfectant; isotype control. For orientation: A flow cytometer gives signals particle by particle.
Assay [1] deals with mouse TIM3 (mouse) (UniProt Q8VIM0). Kind of assay: binding to activated mouse T cells, compared with TIM3.18 binding to human TIM-3.
The target is the same in assay [2]. The experiment in a line: binding to activated mouse T cells; method not described.

Chain of mouse TIM3 (mouse) (Q8VIM0 20-281): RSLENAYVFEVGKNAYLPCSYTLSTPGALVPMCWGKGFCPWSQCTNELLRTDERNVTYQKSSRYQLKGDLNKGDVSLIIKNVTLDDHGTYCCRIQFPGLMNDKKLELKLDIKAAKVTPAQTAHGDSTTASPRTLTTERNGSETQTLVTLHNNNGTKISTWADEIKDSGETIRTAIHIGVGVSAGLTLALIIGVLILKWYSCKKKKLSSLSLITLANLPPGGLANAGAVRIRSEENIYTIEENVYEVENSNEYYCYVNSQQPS

Broadly, the EC50 is the midpoint of the concentration-response curve. hIgG2 returned an EC50 in the assay with CHO-huTIM3 of 42.3 mg/mL.
hIgG4 yielded an EC50 in the assay with CHO-huTIM3 of 29.3 mg/mL.
For “rat anti-mouse TIM-3 antibody RMT3-23 (Bio-X-Cell)”, the fold weaker EC50 than TIM3.18 on human TIM-3 with mouse TIM3 (mouse) [1] stood at 17 fold. For the same substance, in the assay with mouse TIM3 (mouse) [2], the EC50 is 1.7 nM.

(Values after patent US20180298097A1.)
